Measurements from patent US20190262327A1, “COMBINATION OF A BACE INHIBITOR AND AN ANTIBODY OR ANTIGEN-BINDING FRAGMENT FOR THE TREATMENT OF A DISORDER ASSOCIATED WITH THE ACCUMULATION OF AMYLOID BETA” (ASTRAZENECA AB, priority 2016, published 2019).

Legend:
[1] = target: T1, human Amyloid beta 1-42 peptide (Homo sapiens, UniProt P05067); test: Surface Plasmon Resonance kinetic profiling of purified scFv (ProteOn); type: binding; conditions: biotinylated human Amyloid beta 1-42 on streptavidin chip
T1 construct: biotinylated human Amyloid beta 1-42 peptide (rpeptide, USA; cat: A1117); purchased rPeptide, USA A1117; host or cells: synthetic peptide

[2] = target: T2, Amyloid beta 1-42 peptide (Rattus norvegicus, UniProt P08592); test: Free Amyloid beta 1-42 peptide in rat CSF (immunoprecipitation + ELISA); type: in vivo; conditions: normal rats, 10 mg/kg i.v. weekly for 2 weeks; not significant
T2 construct: Measurement of free Amyloid beta 1-42 peptide in rat CSF; from tissue; host or cells: CSF and brain homogenate of Sprague-Dawley rats
Description: (§1) Eight-week old male albino Harlan Sprague-Dawley rats (n=8-12) received a single dose of Abet0380-GL IgG1-TM antibody by intravenous injection with a dosing vehicle of 25 mM Histidine, 7% Sucrose, 0.02% p80 surfactant, pH 6.0 at 5 ml/kg. Dosing solutions were made just before dosing. Animals were anaesthetized at the time indicated and cerebrospinal fluid (CSF) was aspirated from the cistema magna. CSF samples were centrifuged for 10 minutes at approximately 3000× g at 4° C. within 20 minutes of sampling to remove cells or debris. Samples were then frozen on dry ice and stored at −70° C. for subsequent analysis.
Measurement of free Amyloid beta 1-42 peptide in rat CSF was conducted using immunoprecipitation to remove Abet0380-GL bound Amyloid beta 1-42 peptide, followed by analysis by a commercial ELISA kit obtained from Invitrogen. Briefly, a solution of protein A beads (Dynabeads® Protein A; Invitrogen, UK; cat: 100-02D) was added to a 96 well non-skirted plate (polypropylene 0.2 ml; VWR International, UK; cat: 10732-4828) and washed twice with TBST (50 mM TBS; Sigma, UK; cat: T6664 plus 0.1% Tween20) using a magnet (DynaMag™ 96 side; Invitrogen, UK; cat: 123.31 D) to separate the beads from the solution. Thawed rat CSF samples (40 μl) were added to each well and incubated at […] with tilt rotation for 1 hour. The beads were then pelleted using the magnet and 30 μl of immunoprecipitated CSF samples were transferred to a 96 well plate from the ELISA kit (mouse Amyloid beta (1-42) colorimetric ELISA kit; Invitrogen, UK; cat: KMB3441) with 70 μl of the Standard Diluent Buffer already added (supplemented with protease inhibitor; Roche, UK; cat: 11836153001). Calibration standard samples were added to the plate in duplicate and the plate was incubated for 2 hours at room temperature with shaking. The plate was washed 4 times with 400 µl of wash buffer, 100 μl of the detection antibody solution was added to each well and the plate was incubated for 1 hour at room temperature with shaking. Again, the plate was washed 4 times with 400 μl of wash buffer, 100 μl of the secondary antibody working solution was added to each well and the plate was incubated for 30 minutes at room temperature with shaking. Finally, the plate was washed 4 times with 400 μl of wash buffer, 100 μl of stabilized Chromogen was added to each well and the plate was incubated for 30 minutes at room temperature in the dark. To stop the reaction, 100 μl of Stop Solution was added to each well and the plate was read within 2 hours at an absorbance of 450 nm. Single CSF samples were analyzed and data analysis was performed using Prism 4 (GraphPad, USA) with one-way ANOVA on log transformed data without adjustment for multiple comparisons.
To further investigate the effect of the Abet0380-GL IgG1-TM antibody in vivo, rats were administered weekly doses of 0.25, 0.5, 1, 5 or 10 mg/kg over 14 days. Animals were euthanized 168 hours after the second dose to measure levels of free Amyloid beta 1-42 peptide in CSF as well as total Amyloid beta 1-42 or 1-40 peptides in brain tissue.
The ability of antibody Abet0144-GL to sequester amyloid beta 1-42 was investigated in a PK-PD study in normal rats. Rats were intravenously administered Abet0144-GL (10 or 40 mg/kg) or vehicle weekly for 2 weeks (on days 0 and 7), and sacrificed a week after the 2nd dose. […] Free and total amyloid beta 1-42 levels were measured using assays described above.

[3] = target: T2, Amyloid beta 1-42 peptide; test: Total Amyloid beta 1-42 peptide in rat brain homogenates (ELISA); type: in vivo; conditions: normal rats
Description: as §1
Animals were sacrificed by decapitation, brain tissue was dissected and Amyloid beta peptides were extracted from brain tissue in diethylamine (DEA; Fluka. Sigma. UK; cat: 31729). Briefly, frozen brain tissue was homogenized in 0.2% DEA and 50 mM NaCl (Merck, USA: cat: 1.06404.1000). Brain homogenates were ultracentrifuged at 133,000×g, for 1 hour. Recovered supernatants were neutralized to pH 8.0 with 2 M Tris-HCl (TRIZMA®-hydrochloride; Sigma, UK; cat: 93363) and stored at −70° C. until analysis. Animal experimentations were performed in accordance with relevant guidelines and regulations provided by the Swedish Board of Agriculture. The ethical permission was provided by an ethical board specialized in animal experimentations: the Stockholm Södra Animal Research Ethical Board.
Measurement of total (free and Abet0380-GL bound) Amyloid beta 1-42 peptide in rat brain homogenates was performed using modifications of the mouse Amyloid beta (1-42) colorimetric ELISA kit (Invitrogen, UK: cat: KMB3441). […] To stop the reaction, 100 μl of Stop Solution was added to each well and the plate was read within 2 hours at an absorbance of 450 nm. […]
The ability of antibody Abet0144-GL to sequester amyloid beta 1-42 was investigated in a PK-PD study in normal rats. […] Free and total amyloid beta 1-42 levels were measured using assays described above.

amyloid beta 1-42 = target: T3, amyloid beta 1-42 (Rattus norvegicus, UniProt P08592); test: Total amyloid beta 1-42 in rat CSF (PK-PD study in normal rats); type: in vivo
T3 construct: Measurement of free Amyloid beta 1-42 peptide in rat CSF; from tissue; host or cells: CSF and brain homogenate of Sprague-Dawley rats
Description: The ability of antibody Abet0144-GL to sequester amyloid beta 1-42 was investigated in a PK-PD study in normal rats. Rats were intravenously administered Abet0144-GL (10 or 40 mg/kg) or vehicle weekly for 2 weeks (on days 0 and 7), and sacrificed a week after the 2nd dose. CSF was sampled for free and total amyloid beta 1-42, and brain was sampled for total amyloid beta 1-42 measurement. Free and total amyloid beta 1-42 levels were measured using assays described above.

[4] = 10 mg/kg i.v. weekly for 2 weeks
[5] = 40 mg/kg i.v. weekly for 2 weeks

T2 sequence (P08592 672-713 limits assumed): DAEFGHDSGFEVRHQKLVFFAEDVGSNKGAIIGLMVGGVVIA
T1 sequence (P05067 672-713): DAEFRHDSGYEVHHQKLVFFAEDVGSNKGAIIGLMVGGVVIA
T3 sequence (P08592 672-713 limits assumed): as the sequence (P08592 672-713 limits assumed) above

B1: Abet0144-GL: parent anti-Aβ antibody clone, germlined; VH domain SEQ ID NO: 20 and VL domain SEQ ID NO: 29 (antibody, listed as Homo sapiens, V domains shown)
VH: EVQLLESGGGLVQPGGSLRLSCAASGFTFSVYTMWWVRQAPGKGLEWVSVIGSSGGTTVYADSVKGRFTISRDNSKNTLYLQMNSLRAEDTAVYYCAREWMDHSRPYYYYGMDVWGQGTLVTVSS
VL: SYELTQPPSVSVSPGQTASITCSGHNLEDKFASWYQQKPGQSPVLVIYRDDKRPSGIPERFSASNSGHTATLTISGTQAMDEADYYCQAQDSTTRVFGGGTKLTVL
modifications: /note=“Abet0144-GL”
Q: What does the source list for B1?
A: ka [1]: 116000 M⁻¹ s⁻¹; kd [1]: 0.0066 s⁻¹; increase of free amyloid beta 1-42 in CSF compared with vehicle [2]: 5%; increase of total amyloid beta 1-42 in brain tissue [3, 4]: 16%; increase of total amyloid beta 1-42 in brain tissue [3, 5]: 50%; increase of total amyloid beta 1-42 in CSF (amyloid beta 1-42; [4]): 38%; increase of total amyloid beta 1-42 in CSF (amyloid beta 1-42; [5]): 139%
